Measured values from US20110300138A1 (published 2011).

Tests used:
[1] = target: TSH receptor (full length human TSHR) coated on tubes (human) (UniProt P16473); test: 125I-TSH bound to TSHR coated tubes, in assay buffer
[2] = target: TSH receptor (full length human TSHR) coated on tubes (human) (UniProt P16473); test: 125I-TSH bound to TSHR coated tubes, in HBD pool serum
[3] = target: TSH receptor (full length human TSHR) coated on tubes (human) (UniProt P16473); test: 125I-TSH binding to TSHR coated tubes, in assay buffer
[4] = target: TSH receptor (full length human TSHR) coated on tubes (human) (UniProt P16473); test: 125I-TSH binding to TSHR coated tubes, in HBD pool
[5] = target: full length human TSHR, detergent-solubilised, coated on tubes or ELISA plate wells (human) (UniProt P16473); test: ELISA: TSHR preparation captured on 14C4 F(ab')2 coated wells, M22 Fab-peroxidase binding; preparation stored at -80 C (untreated)
[6] = target: TSHR260-alkaline phosphatase (human); test: ELISA on 14C4 F(ab')2 captured preparation; TSHR260-AP kept 24 hours at room temperature
[7] = target: TSHR260-alkaline phosphatase (human); test: ELISA on 14C4 F(ab')2 captured preparation; untreated TSHR260-AP
[8] = target: T1, TSHR260 (human, UniProt P16473 22-260); test: ELISA on 14C4 F(ab')2 captured preparation; untreated TSHR260
T1 construct: Expressed in insect cells; coated on tubes or wells by way of a mouse TSHR MAb (14C4 F(ab')2 in the stability ELISA); also called TSHR fragment of amino acids 22-260

[9] = target: TSHR LRD C-CAP (human) (UniProt P16473); test: ELISA on 14C4 F(ab')2 captured preparation; untreated TSHR LRD C-CAP
[10] = target: TSHR LRD C-CAP (human) (UniProt P16473); test: ELISA on 14C4 F(ab')2 captured preparation; TSHR LRD C-CAP kept 48 hours at room temperature
[11] = target: T1, TSHR260; test: ELISA on 14C4 F(ab')2 captured preparation; TSHR260 kept 48 hours at room temperature
[12] = target: TSHR260-alkaline phosphatase (human); test: ELISA on 14C4 F(ab')2 captured preparation; TSHR260-AP kept 48 hours at room temperature
[13] = target: T1, TSHR260; test: ELISA on 14C4 F(ab')2 captured preparation; TSHR260 kept 24 hours at room temperature
[14] = target: TSHR LRD C-CAP (human) (UniProt P16473); test: ELISA on 14C4 F(ab')2 captured preparation; TSHR LRD C-CAP kept 24 hours at room temperature
[15] = target: full length human TSHR, detergent-solubilised, coated on tubes or ELISA plate wells (human) (UniProt P16473); test: ELISA on 14C4 F(ab')2 captured preparation; preparation kept 24 hours at room temperature
[16] = target: full length human TSHR, detergent-solubilised, coated on tubes or ELISA plate wells (human) (UniProt P16473); test: ELISA on 14C4 F(ab')2 captured preparation; preparation kept 48 hours at room temperature
[17] = target: TSH receptor (full length human TSHR) coated on tubes (human) (UniProt P16473); test: 125I-TSH binding inhibition, TSHR coated tubes; 40 units/L in assay buffer
[18] = target: TSH receptor (full length human TSHR) coated on tubes (human) (UniProt P16473); test: 125I-TSH binding inhibition, TSHR coated tubes; 0.25 units/L in assay buffer
[19] = target: TSH receptor (full length human TSHR) coated on tubes (human) (UniProt P16473); test: 125I-TSH binding inhibition, TSHR coated tubes; 1 unit/L in serum
[20] = target: TSH receptor (full length human TSHR) coated on tubes (human) (UniProt P16473); test: 125I-TSH binding inhibition, TSHR coated tubes; 0.5 units/L in serum
[21] = target: TSH receptor (full length human TSHR) coated on tubes (human) (UniProt P16473); test: 125I-TSH binding inhibition, TSHR coated tubes; 40 units/L in serum
[22] = target: TSH receptor (full length human TSHR) coated on tubes (human) (UniProt P16473); test: 125I-TSH binding inhibition, TSHR coated tubes; 2 units/L in assay buffer
[23] = target: TSH receptor (full length human TSHR) coated on tubes (human) (UniProt P16473); test: 125I-TSH binding inhibition, TSHR coated tubes; 4 units/L in serum
[24] = target: TSH receptor (full length human TSHR) coated on tubes (human) (UniProt P16473); test: 125I-TSH binding inhibition, TSHR coated tubes; 4 units/L in assay buffer
[25] = target: TSH receptor (full length human TSHR) coated on tubes (human) (UniProt P16473); test: 125I-TSH binding inhibition, TSHR coated tubes; 2 units/L in serum
[26] = target: TSH receptor (full length human TSHR) coated on tubes (human) (UniProt P16473); test: 125I-TSH binding inhibition, TSHR coated tubes; 0.125 units/L in serum
[27] = target: TSH receptor (full length human TSHR) coated on tubes (human) (UniProt P16473); test: 125I-TSH binding inhibition, TSHR coated tubes; 8 units/L in serum
[28] = target: TSH receptor (full length human TSHR) coated on tubes (human) (UniProt P16473); test: 125I-TSH binding inhibition, TSHR coated tubes; 1 unit/L in assay buffer
[29] = target: TSH receptor (full length human TSHR) coated on tubes (human) (UniProt P16473); test: 125I-TSH binding inhibition, TSHR coated tubes; 8 units/L in assay buffer
[30] = target: TSH receptor (full length human TSHR) coated on tubes (human) (UniProt P16473); test: 125I-TSH binding inhibition, TSHR coated tubes; 0.25 units/L in serum
[31] = target: TSH receptor (full length human TSHR) coated on tubes (human) (UniProt P16473); test: 125I-TSH binding inhibition, TSHR coated tubes; 0.125 units/L in assay buffer
[32] = target: TSH receptor (full length human TSHR) coated on tubes (human) (UniProt P16473); test: 125I-TSH binding inhibition, TSHR coated tubes; 0.5 units/L in assay buffer
[33] = target: TSH receptor (full length human TSHR) coated on tubes (human) (UniProt P16473); test: 125I-TSH binding inhibition, TSHR coated tubes; 8.0 units/L, in serum
[34] = target: TSH receptor (full length human TSHR) coated on tubes (human) (UniProt P16473); test: 125I-TSH binding inhibition, TSHR coated tubes; 0.5 units/L, in assay buffer
[35] = target: TSH receptor (full length human TSHR) coated on tubes (human) (UniProt P16473); test: 125I-TSH binding inhibition, TSHR coated tubes; 0.25 units/L, in assay buffer
[36] = target: TSH receptor (full length human TSHR) coated on tubes (human) (UniProt P16473); test: 125I-TSH binding inhibition, TSHR coated tubes; 0.125 units/L, in serum
[37] = target: TSH receptor (full length human TSHR) coated on tubes (human) (UniProt P16473); test: 125I-TSH binding inhibition, TSHR coated tubes; 40.0 units/L, in serum
[38] = target: TSH receptor (full length human TSHR) coated on tubes (human) (UniProt P16473); test: 125I-TSH binding inhibition, TSHR coated tubes; 4.0 units/L, in assay buffer
[39] = target: TSH receptor (full length human TSHR) coated on tubes (human) (UniProt P16473); test: 125I-TSH binding inhibition, TSHR coated tubes; 0.5 units/L, in serum
[40] = target: TSH receptor (full length human TSHR) coated on tubes (human) (UniProt P16473); test: 125I-TSH binding inhibition, TSHR coated tubes; 0.125 units/L, in assay buffer
[41] = target: TSH receptor (full length human TSHR) coated on tubes (human) (UniProt P16473); test: 125I-TSH binding inhibition, TSHR coated tubes; 2.0 units/L, in assay buffer
[42] = target: TSH receptor (full length human TSHR) coated on tubes (human) (UniProt P16473); test: 125I-TSH binding inhibition, TSHR coated tubes; 8.0 units/L, in assay buffer
[43] = target: TSH receptor (full length human TSHR) coated on tubes (human) (UniProt P16473); test: 125I-TSH binding inhibition, TSHR coated tubes; 40.0 units/L, in assay buffer
[44] = target: TSH receptor (full length human TSHR) coated on tubes (human) (UniProt P16473); test: 125I-TSH binding inhibition, TSHR coated tubes; 0.25 units/L, in serum
[45] = target: TSH receptor (full length human TSHR) coated on tubes (human) (UniProt P16473); test: 125I-TSH binding inhibition, TSHR coated tubes; 4.0 units/L, in serum
[46] = target: TSH receptor (full length human TSHR) coated on tubes (human) (UniProt P16473); test: 125I-TSH binding inhibition, TSHR coated tubes; 1.0 units/L, in serum
[47] = target: TSH receptor (full length human TSHR) coated on tubes (human) (UniProt P16473); test: 125I-TSH binding inhibition, TSHR coated tubes; 2.0 units/L, in serum
[48] = target: TSH receptor (full length human TSHR) coated on tubes (human) (UniProt P16473); test: 125I-TSH binding inhibition, TSHR coated tubes; 1.0 units/L, in assay buffer
[49] = target: T2, human TSH receptor, full length, detergent-solubilised, coated on tubes or ELISA plate wells (human, UniProt P16473 22-764); test: TSHR binding affinity (summary table; Scatchard analysis, TSHR coated tubes)
T2 construct: Full length recombinant receptor expressed in CHO cells, solubilised and coated via a C-terminal antibody; also called wild type TSHR; full length TSHR

125I-TSH (ligand) gave a 125I-TSH binding (%) [1] of 17.7% and a 125I-TSH binding (%) [2] of 16%.

For 125I-labelled TSH (ligand), the % binding [3] was 12.6% and the % binding [4] was 12.9%.

Work on M22 Fab-peroxidase conjugate yielded an OD450 nm [5] of 1.75 OD450 nm, an OD450 nm [6] of 2.11 OD450 nm and an OD450 nm [7] of 2.4 OD450 nm. The OD450 nm [8] was 2.29 OD450 nm, the OD450 nm [9] was 1.83 OD450 nm and the OD450 nm [10] was 1.16 OD450 nm. It also gave an OD450 nm [11] of 1.68 OD450 nm, an OD450 nm [12] of 1.98 OD450 nm and an OD450 nm [13] of 1.84 OD450 nm. The OD450 nm [14] was 1.16 OD450 nm, the OD450 nm [15] was 0.268 OD450 nm and the OD450 nm [16] was 0.126 OD450 nm.

For “Thyroid Stimulating Autoantibody reference preparation NIBSC 90/672”, the Inhibition of binding (%) [17] was 90.9%, the Inhibition of binding (%) [18] was 0.9% and the Inhibition of binding (%) [19] was 15.5%. It also gave an Inhibition of binding (%) [20] of 9.3%, an Inhibition of binding (%) [21] of 90% and an Inhibition of binding (%) [22] of 27.2%. It also gave an Inhibition of binding (%) [23] of 49.2%, an Inhibition of binding (%) [24] of 53.3% and an Inhibition of binding (%) [25] of 22.9%. The Inhibition of binding (%) [26] was 2.4%, the Inhibition of binding (%) [27] was 63.2% and the Inhibition of binding (%) [28] was 14.1%. For the same molecule, the Inhibition of binding (%) [29] was 62.2%, the Inhibition of binding (%) [30] was 3.5% and the Inhibition of binding (%) [31] was 5.1%. It also gave an Inhibition of binding (%) [32] of 2.8%.

Work on WHO reference preparation NIBSC 90/672 yielded an Inhibition of binding (%) [33] of 65.3%, an Inhibition of binding (%) [34] of 3.1% and an Inhibition of binding (%) [35] of 0%. It also gave an Inhibition of binding (%) [36] of 0%, an Inhibition of binding (%) [37] of 90.9% and an Inhibition of binding (%) [38] of 49%. The Inhibition of binding (%) [39] was 5.6%, the Inhibition of binding (%) [40] was 0% and the Inhibition of binding (%) [41] was 26.2%. For the same molecule, the Inhibition of binding (%) [42] was 62.7%, the Inhibition of binding (%) [43] was 91% and the Inhibition of binding (%) [44] was 0%. For the same molecule, the Inhibition of binding (%) [45] was 34.8%, the Inhibition of binding (%) [46] was 8.1% and the Inhibition of binding (%) [47] was 18.2%. For the same molecule, the Inhibition of binding (%) [48] was 14%.

B1: K1-70 IgG (human monoclonal TSHR autoantibody with blocking activity) (antibody, V domains shown)
VH: EVQLVQSGAEVKKPGQSLKISCKASGYSLTDNWIGWVRQKPGKGLEWMGIIYPGDSDTRYSPSFQGQVTISADKSINTAYLQWSSLKASDTAIYYCVGLDWNYNPLRYWGPGTLVTVSS
VL: QSVLTQPPSVSAAPGQKVTISCSGSSSDIGSNYVSWYQQFPGTAPKLLIYDNNKRPSAIPDRFSGSKSGTSATLGITGLQTGDEADYYCGTWDSRLGIAVFGGGTQLTVLG
notes: IgG1 lambda purified from hetero-hybridoma supernatant
In the case of B1, the Ka [49] is reported as 3.9e+10 M⁻¹.
